One substance from patent US20200308270A1 can be followed below.

In test [1] the target is human recombinant FcgammaR receptor CD32aH (human) (UniProt P12318). The test can be described thus: SPR (ProteOn), Mab captured via anti-human Fc, FcgammaR analyte.
Test [2] has as its target human recombinant FcgammaR receptor CD32bF (human) (UniProt P31994). The test is described as above.

As usually defined, the Kd is the constant that tells how readily two partners part at equilibrium.

CAT-2200 wild-type lambda Mab (antibody), sequence (heavy): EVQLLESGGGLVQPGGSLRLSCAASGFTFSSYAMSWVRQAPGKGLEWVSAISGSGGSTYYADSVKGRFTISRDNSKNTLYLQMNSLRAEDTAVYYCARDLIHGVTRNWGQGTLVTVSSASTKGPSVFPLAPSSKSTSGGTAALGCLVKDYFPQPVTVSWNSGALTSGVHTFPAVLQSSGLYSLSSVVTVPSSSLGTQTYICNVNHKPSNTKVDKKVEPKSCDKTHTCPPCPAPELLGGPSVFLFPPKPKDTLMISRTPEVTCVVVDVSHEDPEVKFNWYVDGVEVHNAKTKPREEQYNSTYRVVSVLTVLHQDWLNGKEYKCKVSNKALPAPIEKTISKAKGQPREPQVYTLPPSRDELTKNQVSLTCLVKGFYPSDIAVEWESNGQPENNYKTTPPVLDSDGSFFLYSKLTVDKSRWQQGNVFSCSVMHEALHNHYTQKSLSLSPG
CAT-2200 wild-type lambda Mab (antibody), sequence (light): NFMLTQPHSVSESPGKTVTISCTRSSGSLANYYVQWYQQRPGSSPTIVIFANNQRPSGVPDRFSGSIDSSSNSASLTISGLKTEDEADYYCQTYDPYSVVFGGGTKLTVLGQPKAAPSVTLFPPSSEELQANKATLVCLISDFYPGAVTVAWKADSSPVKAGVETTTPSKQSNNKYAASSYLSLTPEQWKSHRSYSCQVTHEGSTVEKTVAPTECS
human recombinant FcgammaR receptor CD32aH (human), sequence (P12318 34-217): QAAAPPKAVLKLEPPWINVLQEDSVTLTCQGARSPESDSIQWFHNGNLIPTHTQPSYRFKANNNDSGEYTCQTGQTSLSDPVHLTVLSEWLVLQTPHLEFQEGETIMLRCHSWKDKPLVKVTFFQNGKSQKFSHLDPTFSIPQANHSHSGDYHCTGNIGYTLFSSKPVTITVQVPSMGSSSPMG

For the substance “CAT-2200 wild-type lambda Mab (antibody)”, the dissociation constant (Kd) in test [1] was 700 nM; in test [2], 2900 nM.
